This note sets out measurements from paper doi:10.1101/2023.05.01.538945, “Structural basis of Gabija anti-phage defense and viral immune evasion” (bioRxiv, 2023).

A word on the stoichiometry N: it is a count of units in the complex or per binding partner.

To fix the notation:
B2: Bacillus cereus VD045 GajA (Gabija protein A), co-expressed with GajB, tag removed (enzyme)
chain: KFSNITIKNFRNFEKVNINLDNKNVIFGMNDIGKTNFLYALRFLLDKEIRKFGFNKSDYHKHDTSKKIEIILTLDLSNYEKDEDTKKLISVVKGARTSANADVFYIALESKYDDKELYGNIILKWGSELDNLIDIPGRGNINALDNVFKVIYINPLVDLDKLFAQNKKYIFEESQGNESDEGILNNIKSLTDQVNQQIGEMTIIKGFQQEITSEYRSLKKEEVSIELKSEMAIKGFFSDIIPYIKKDGDSNYYPTSGDGRRKMLSYSIYNYLAKKKYEDKIVIYLIEEPEISLHRSMQIALSKQLFEQSTYKYFFLSTHSPELLYEMDNTRLIRVHSTEKVVCSSHMYNVEEAYGSVKKKLNKALSSALFAERVLLIEGPSEKILFEKVLDEVEPEYELNGGFLLEVGGTYFNHYVCTLNDLGITHIIKTDNDLKSKKGKKGVYELLGLNRCLNLLGRENLDEITIDIPEDIKGKKKKERLNERKKEIFKQYKNEVGEFLGERIYLSEIDLENDLYSAIGESMKRIFENEDPVHYLQKSKLFNMVELVNNLSTKDCFDVFEHEKFACLKELVGSDRG
notes: GajA (Gabija protein A), Class 2 OLD nuclease, Bacillus cereus VD045, IMG ID 2519684552; codon-optimized synthetic gene; GajA chain of the GajAB crystal structure; The 5xGS linker probably stays on GajA after SENP2 cleavage (surmise); also called BcGajA; source: E. coli BL21(DE3) or BL21(DE3)-RIL, co-expressed with GajB, purified (Ni-NTA, SUMO2 cleavage by hSENP2, SEC); not shown: …

The target of data set [1] is B2. As to the kind of experiment: crystal structure; GajAB co-expressed in E. coli and purified as a complex; hanging drop, 18°C, 100 mM HEPES-NaOH pH 7.5, 2.4% PEG-400, 2.2 M ammonium sulfate; 3.0 Å. The settings on record: both partners purified.
Data set [2] deals with the molecule itself. Described as above.
Data set [3] deals with the molecule itself. The experiment in a line: SEC; 16/600 S200 (Superdex 200); purified recombinant BcGajA alone, BcGajB alone and the co-expressed BcGajAB complex. (SEC sorts molecules by how far they enter the pores of the column.)

B1: Bacillus cereus VD045 GajB (Gabija protein B), untagged, co-expressed with GajA (enzyme)
chain: SREQIIKDGGNILVTAGAGSGKTTILVSKIEADLKENKTHYSIAAVTFTNKAAKEIEGRLGYSSRGNFIGTNDGFVESEIIRPFIKDAFGNDYPDNFTAEYFDNQFASYDKGLQVLKYQNILGTYSNPKKNFKFQLALDILKKSLVARQYIFSKYFKIFIDEYQDSDKDMHNLFMYLKDQLKIKLFIVGDPKQSIYIWRGAEPENFNGLIENSTDFNKYHLTSNFRCCQDIQNYSNLFNEETRSLIKEKNEVQNVISIADDMPISDILLKLTEEKQVLNIEAELVILVRRRNQAIEIMKELNEEGFNFIFIPQTPLDRATPNATLLKEVIKYVKNDRYSIYDLAAEIVGNLSSREIKEIQKIINELLVPNINQVLINQVLINLFAKLEITLDTREITAFTEVMMTNEFDIAFDTNEYLHKIFTVHSAKGLEFNQVIITASDYNVHYNRDTNEHYVATTRAKDKLIVIMDNKKYSDYIETLMKELKIKNIIKSI
notes: GajB (Gabija protein B), Superfamily 1A helicase, Bacillus cereus VD045, IMG ID 2519684553; codon-optimized synthetic gene; GajB chain of the GajAB crystal structure and of the GajAB-Gad1 cryo-EM structure; also called BcGajB
Consider B1, for which the “stoichiometry N” value in data set [1] is 1 GajB per GajA (4:4).
For B2, the “stoichiometry N” value in data set [2] came out at 4.

B3: Bacillus cereus VD045 GajA alone, C-terminal 6xHis (enzyme)
chain: KFSNITIKNFRNFEKVNINLDNKNVIFGMNDIGKTNFLYALRFLLDKEIRKFGFNKSDYHKHDTSKKIEIILTLDLSNYEKDEDTKKLISVVKGARTSANADVFYIALESKYDDKELYGNIILKWGSELDNLIDIPGRGNINALDNVFKVIYINPLVDLDKLFAQNKKYIFEESQGNESDEGILNNIKSLTDQVNQQIGEMTIIKGFQQEITSEYRSLKKEEVSIELKSEMAIKGFFSDIIPYIKKDGDSNYYPTSGDGRRKMLSYSIYNYLAKKKYEDKIVIYLIEEPEISLHRSMQIALSKQLFEQSTYKYFFLSTHSPELLYEMDNTRLIRVHSTEKVVCSSHMYNVEEAYGSVKKKLNKALSSALFAERVLLIEGPSEKILFEKVLDEVEPEYELNGGFLLEVGGTYFNHYVCTLNDLGITHIIKTDNDLKSKKGKKGVYELLGLNRCLNLLGRENLDEITIDIPEDIKGKKKKERLNERKKEIFKQYKNEVGEFLGERIYLSEIDLENDLYSAIGESMKRIFENEDPVHYLQKSKLFNMVELVNNLSTKDCFDVFEHEKFACLKELVGSDRG
notes: GajA, Bacillus cereus VD045, IMG ID 2519684552; also called BcGajA; source: E. coli BL21(DE3) or BL21(DE3)-RIL, purified (Ni-NTA, SEC); for the Ni-NTA co-purification co-expressed with Shewanella phage 1/4 Gad1; not shown: 6xHis, C-terminal, kept
For B3, the “stoichiometry N” value in data set [3] is 4.
